Reference: patent EP2500357A2 (Abbott Laboratories, dated 2012)

What was measured:
[1] = target: T1, recombinant human IL-1α (human, UniProt P01583 113-271); assay: SPR (Biacore), hIL-1α as 2nd antigen
T1 construct: also called rhIL-1α; hIL-1α
T1 sequence (looked up): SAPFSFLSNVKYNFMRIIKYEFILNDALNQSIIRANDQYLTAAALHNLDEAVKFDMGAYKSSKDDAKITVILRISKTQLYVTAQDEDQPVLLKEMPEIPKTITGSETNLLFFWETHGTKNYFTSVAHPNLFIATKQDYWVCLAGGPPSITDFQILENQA

[2] = target: T1, recombinant human IL-1α; assay: SPR (Biacore), hIL-1α as 1st antigen
[3] = target: T2, recombinant human IL-1β (human, UniProt P01584 117-269); assay: cell-based or functional assay
[4] = target: T1, recombinant human IL-1α; assay: cell-based or functional assay
[5] = target: T2, recombinant human IL-1β; assay: SPR (Biacore), hIL-1β as 2nd antigen
[6] = target: T2, recombinant human IL-1β; assay: cell-based or functional assay; remark: listed apart in the source
[7] = target: T1, recombinant human IL-1α; assay: cell-based or functional assay; remark: listed apart in the source
[8] = target: T2, recombinant human IL-1β; assay: SPR (Biacore), hIL-1β as 1st antigen
[9] = target: T3, human IL-18 (human, UniProt Q14116 37-193); assay: cell-based or functional assay
[10] = target: T3, human IL-18; assay: cell-based or functional assay; remark: listed apart in the source

B1: hIL-1a/bDVD1-Ig (bispecific antibody, human IgG1, kappa)
heavy: not shown
light: NIVLTQSPASLAVSLGQRATISCRASESVDSYGNSYMHWYQQKPGQPPKLLIYLASNLESGVPARFSGSGSRTDFTLTIDPVEADDAATYYCQQNNEDPFTFGSGTKLEIKRNIQMTQTTSSLSASLGDRVTISCRASQDISNCLNWYQQKPDGTVKLLIYYTSRLHSGVPSRFSGSGSGTDYSLTISNLEQEDIATYFCQQGKTLPYAFGGGTKLEINRTVAAPSVFIFPPSDEQLKSGTASVVCLLNNFYPREAKVQWKVDNALQSGNSQESVTEQDSKDSTYSLSSTLTLSKADYEKHKVYACEVTHQGLSSPVTKSFNRGEC
notes: No linker between the variable domains; also called hIL-1α/βDVD1-Ig
- Stoichiometry hIL-1α:DVD-Ig [1]: 1.1
- Stoichiometry hIL-1α:DVD-Ig [2]: 2.3
- Potency (IC50), MRC-5 bioassay [3]: 3.1 nM
- Potency (IC50), MRC-5 bioassay [4]: 2.3 nM
- Stoichiometry hIL-1β:DVD-Ig [5]: 1
- dual-inhibition activity, IL-8 synthesis by MRC-5 cells with both IL-1α and IL-1β present [6]: 2.2 nM
- dual-inhibition activity, IL-8 synthesis by MRC-5 cells with both IL-1α and IL-1β present [7]: 2.2 nM
- neutralizing activity against hIL-1α relative to the chimeric Abs [7]: 3 fold
- Stoichiometry hIL-1β:DVD-Ig [8]: 1.5

B2: ABT325 (anti-human IL-18 mAb) (antibody, V domains shown)
VH: EVQLVQSGTEVKKPGESLKISCKGSGYTVTSYWIGWVRQMPGKGLEWMGFIYPGDSETRYSPTFQGQVTISADKSFNTAFLQWSSLKASDTAMYYCARVGSGWYPYTFDIWGQGTMVTVSS
VL: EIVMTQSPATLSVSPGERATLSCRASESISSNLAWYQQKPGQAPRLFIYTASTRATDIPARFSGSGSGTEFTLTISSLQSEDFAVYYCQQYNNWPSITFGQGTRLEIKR
- Potency (IC50), KG-1 bioassay (IL-18) [9]: 0.0687 nM
- IC50, KG-1 bioassay (IFN-γ production) [10]: 0.3 nM
